Results reported in patent US20240376174A1.

Experiments:
[1] = molecular target: allophycocyanin (AP) core cylinders of the Synechocystis phycobilisome
[2] = molecular target: allophycocyanin (AP) core cylinders of the Synechocystis phycobilisome; remark: listed apart in the source
[3] = molecular target: allophycocyanin (AP) core cylinders of the Synechocystis phycobilisome; remark: listed apart in the source
[4] = molecular target: CpcA, α-subunit of phycocyanin (Synechocystis sp. PCC 6803); test: densitometry of Zn-chromophore fluorescence bands of affinity-eluted proteins

With (α,β)3CpcG1*IFN complex the Chl a fluorescence yield normalized to Chl, relative to Δcpc (relative to Δcpc (=1.0)) [1] was 1.55 and the kII of PSII photochemistry minus the kII of Δcpc, 620 nm actinic light, 12 µM DCMU [1] was 22.4 % of WT.
With (α,β*)3CpcG heterohexameric complex the rate constant kII of PSII photochemistry, 620 nm actinic light, DCMU-treated intact cells [2] was 1.57 fold of Δcpc and the Chl a fluorescence yield at 700 nm, normalized to [Chl], relative to Δcpc (relative to Δcpc (=1.00)) [3] was 1.74.
With (α,β*IFN)3CpcG heterohexameric complex the rate constant kII of PSII photochemistry, 620 nm actinic light, DCMU-treated intact cells [2] was 1.46 fold of Δcpc and the Chl a fluorescence yield at 700 nm, normalized to [Chl], relative to Δcpc (relative to Δcpc (=1.00)) [3] was 1.84.
For “(α,β*TTFC)3CpcG1*IFN heterohexameric complex”, the Chl a fluorescence yield normalized to Chl, relative to Δcpc (relative to Δcpc (=1.0)) [1] was 1.45 and the kII of PSII photochemistry minus the kII of Δcpc, 620 nm actinic light, 12 µM DCMU [1] was 13.4 % of WT.
With (α,β*TTFC)3CpcG heterohexameric complex the rate constant kII of PSII photochemistry, 620 nm actinic light, DCMU-treated intact cells [2] was 1.39 fold of Δcpc and the Chl a fluorescence yield at 700 nm, normalized to [Chl], relative to Δcpc (relative to Δcpc (=1.00)) [3] was 1.66.
With CpcB*S7*6xHis*tev*TTFC fusion protein the CpcB/CpcA Zn-chromophore fluorescence ratio in the eluted fraction [4] was 1.4.
